Reference: publication PMC8590011, “WRN helicase safeguards deprotected replication forks in BRCA2-mutated cancer cells”

Target: FLAG-WRN K577M/E84A (UniProt Q14191 1-1432, E84A;K577M)
Assay: EMSA; 2 mM ATPgS, 5 mM MgCl2; affinity similar to WT; Kd is only in Supp Fig 1e, value not in material; 35 mM Tris-HCl pH 7.5, 20 mM KCl, 5 mM MgCl2, 0.1 mg/ml BSA, 2 mM DTT, 5% glycerol, 2 mM ATPgS, 2 nM DNA, 15 min at RT; 5% 1x TBE native PAGE at 4 C
Conditions: protein: recombinant; tags: N-terminal FLAG (6xHis removed with TEV); label: 5' 32P on oligo B (as described for the CF preparation); four-strand regressed fork: AB partial duplex annealed to CD partial duplex

Chain of FLAG-WRN K577M/E84A (Q14191 whole entry E84A/K577M): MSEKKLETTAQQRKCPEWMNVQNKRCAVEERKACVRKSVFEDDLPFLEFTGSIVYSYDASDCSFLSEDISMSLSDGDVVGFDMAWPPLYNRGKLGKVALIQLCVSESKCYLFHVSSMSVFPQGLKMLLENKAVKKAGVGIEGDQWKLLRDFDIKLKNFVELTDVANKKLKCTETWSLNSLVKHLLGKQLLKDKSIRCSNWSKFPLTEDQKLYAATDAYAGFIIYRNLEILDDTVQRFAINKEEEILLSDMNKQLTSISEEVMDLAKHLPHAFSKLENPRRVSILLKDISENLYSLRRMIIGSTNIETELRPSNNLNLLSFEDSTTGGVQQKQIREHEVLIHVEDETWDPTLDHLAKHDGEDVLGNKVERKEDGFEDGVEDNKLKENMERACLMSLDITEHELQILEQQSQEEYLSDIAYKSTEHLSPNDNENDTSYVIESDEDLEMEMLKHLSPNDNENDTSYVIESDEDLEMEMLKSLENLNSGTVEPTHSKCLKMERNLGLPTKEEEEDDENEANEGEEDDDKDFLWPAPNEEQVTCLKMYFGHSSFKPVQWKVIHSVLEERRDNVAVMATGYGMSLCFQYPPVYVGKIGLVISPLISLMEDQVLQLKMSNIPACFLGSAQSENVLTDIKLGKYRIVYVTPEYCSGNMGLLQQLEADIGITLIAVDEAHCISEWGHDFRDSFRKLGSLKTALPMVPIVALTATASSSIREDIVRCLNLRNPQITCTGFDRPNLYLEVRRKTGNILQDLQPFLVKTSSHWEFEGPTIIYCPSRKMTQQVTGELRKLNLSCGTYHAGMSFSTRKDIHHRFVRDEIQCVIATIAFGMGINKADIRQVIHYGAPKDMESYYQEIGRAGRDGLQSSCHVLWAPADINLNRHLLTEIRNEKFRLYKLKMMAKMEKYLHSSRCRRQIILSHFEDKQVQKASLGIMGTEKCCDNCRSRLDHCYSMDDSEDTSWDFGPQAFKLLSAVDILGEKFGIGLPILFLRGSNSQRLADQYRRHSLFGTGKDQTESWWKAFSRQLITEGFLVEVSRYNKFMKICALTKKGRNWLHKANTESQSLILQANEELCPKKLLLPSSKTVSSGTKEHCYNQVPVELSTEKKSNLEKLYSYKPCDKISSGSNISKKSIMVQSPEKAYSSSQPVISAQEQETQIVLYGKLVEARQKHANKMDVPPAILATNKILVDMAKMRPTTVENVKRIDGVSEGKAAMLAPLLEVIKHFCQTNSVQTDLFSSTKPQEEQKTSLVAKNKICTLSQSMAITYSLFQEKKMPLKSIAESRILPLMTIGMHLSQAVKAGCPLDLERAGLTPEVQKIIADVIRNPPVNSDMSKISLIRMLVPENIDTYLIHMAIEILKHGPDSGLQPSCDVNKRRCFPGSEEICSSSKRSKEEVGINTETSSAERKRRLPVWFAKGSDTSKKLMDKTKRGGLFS

B1: chicken-foot (CF) reversed fork substrate, oligos A+B+C+D (structured_DNA)
DNA 1: CTTTAGCTGCATATTTACAACATGTTGACCTTCAGTACAATCTGCTCTGATGCCGCATAGTGTCATGCCAGAGCTTTGTAC
DNA 2: CGGGTGTCGGGGCGCATGACACTATGCGGCATCAGAGCAGATTGTACTGAAGGTCAACATGTTGTAAATATGCAGCTAAAG
DNA 3: GTACAAAGCTCTGGCATGATACTATGCGGCATCAGAGCAGATT
DNA 4: TCAGTACAATCTGCTCTGATGCCGCATAGTATCATGCGCCCCGACACCCG
modifications: iMe-isodC at position 38 of oligo A (written as C)
- binding result: binds
